# Patent US20210393713A1
# Molecular target: Twin-Strep-tagged LY6A, C57BL/6J variant (GPI-anchor truncated, soluble) (mouse (C57BL/6J)) (UniProt P05533)
# Experiment: ELISA, AAV particles on plate-bound Twin-Strep-tagged LY6A; apparent Kd from a 1:1 fit
# Sequence of Twin-Strep-tagged LY6A, C57BL/6J variant (GPI-anchor truncated, soluble) (mouse (C57BL/6J)) (P05533 27-111, change not shown): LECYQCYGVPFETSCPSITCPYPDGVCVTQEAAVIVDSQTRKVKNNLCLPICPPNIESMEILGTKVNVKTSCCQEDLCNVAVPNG
substance,measurement,value
AAV-PHP.B capsid (AAV9 variant with the TLAVPFK insert),Kd,0.07 nM
